Laboratory results reported in patent US20080193444A1.
Values belong to the molecule of their own block, whether it stands above or below them.

What was measured:
Test in all cases: cell-based or functional assay
α2 integrin (human) = α2 integrin (human) (UniProt P17301)
α2β1 integrin (human) = α2β1 integrin (human) (UniProt P17301)
α5 integrin (human) = α5 integrin (human) (UniProt P08648)
β1 integrin (human) = β1 integrin (human) (UniProt P05556)
α9 integrin (human) = α9 integrin (human) (UniProt Q13797)
Chain of UniProt Q13797 (Q13797 30-1035): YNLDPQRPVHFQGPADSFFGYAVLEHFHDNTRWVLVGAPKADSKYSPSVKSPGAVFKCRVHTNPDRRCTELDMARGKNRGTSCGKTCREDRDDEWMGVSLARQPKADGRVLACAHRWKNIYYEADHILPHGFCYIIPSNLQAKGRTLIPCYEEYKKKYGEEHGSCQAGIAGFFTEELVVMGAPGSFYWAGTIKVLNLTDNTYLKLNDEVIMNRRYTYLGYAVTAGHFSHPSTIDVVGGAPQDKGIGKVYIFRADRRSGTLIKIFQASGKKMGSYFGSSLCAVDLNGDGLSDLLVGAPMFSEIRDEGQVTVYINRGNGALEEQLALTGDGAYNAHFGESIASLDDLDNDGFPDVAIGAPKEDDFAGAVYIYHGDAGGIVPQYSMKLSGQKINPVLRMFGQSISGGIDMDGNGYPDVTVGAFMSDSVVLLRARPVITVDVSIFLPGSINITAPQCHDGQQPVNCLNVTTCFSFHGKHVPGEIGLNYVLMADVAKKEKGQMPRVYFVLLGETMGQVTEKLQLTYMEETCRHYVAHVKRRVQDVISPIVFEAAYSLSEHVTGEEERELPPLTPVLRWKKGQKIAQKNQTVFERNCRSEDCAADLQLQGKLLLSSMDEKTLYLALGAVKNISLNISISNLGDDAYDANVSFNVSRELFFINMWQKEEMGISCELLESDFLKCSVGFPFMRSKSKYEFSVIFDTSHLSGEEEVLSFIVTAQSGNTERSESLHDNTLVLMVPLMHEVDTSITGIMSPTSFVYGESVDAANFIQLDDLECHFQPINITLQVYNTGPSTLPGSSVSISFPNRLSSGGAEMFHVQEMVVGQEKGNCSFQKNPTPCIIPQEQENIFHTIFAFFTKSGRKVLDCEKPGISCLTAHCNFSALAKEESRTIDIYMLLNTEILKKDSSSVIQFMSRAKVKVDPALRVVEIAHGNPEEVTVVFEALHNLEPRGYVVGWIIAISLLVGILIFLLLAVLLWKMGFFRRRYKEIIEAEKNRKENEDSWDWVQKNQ

α6 integrin (human) = α6 integrin (human) (UniProt P23229)
[1] = biological target: αv integrin subunit (rat hippocampus) (rat)
αvβ1 integrin (human) = αvβ1 integrin (human) (UniProt P06756)
Chain of UniProt P06756 (P06756 31-1048, chain 1 of 2): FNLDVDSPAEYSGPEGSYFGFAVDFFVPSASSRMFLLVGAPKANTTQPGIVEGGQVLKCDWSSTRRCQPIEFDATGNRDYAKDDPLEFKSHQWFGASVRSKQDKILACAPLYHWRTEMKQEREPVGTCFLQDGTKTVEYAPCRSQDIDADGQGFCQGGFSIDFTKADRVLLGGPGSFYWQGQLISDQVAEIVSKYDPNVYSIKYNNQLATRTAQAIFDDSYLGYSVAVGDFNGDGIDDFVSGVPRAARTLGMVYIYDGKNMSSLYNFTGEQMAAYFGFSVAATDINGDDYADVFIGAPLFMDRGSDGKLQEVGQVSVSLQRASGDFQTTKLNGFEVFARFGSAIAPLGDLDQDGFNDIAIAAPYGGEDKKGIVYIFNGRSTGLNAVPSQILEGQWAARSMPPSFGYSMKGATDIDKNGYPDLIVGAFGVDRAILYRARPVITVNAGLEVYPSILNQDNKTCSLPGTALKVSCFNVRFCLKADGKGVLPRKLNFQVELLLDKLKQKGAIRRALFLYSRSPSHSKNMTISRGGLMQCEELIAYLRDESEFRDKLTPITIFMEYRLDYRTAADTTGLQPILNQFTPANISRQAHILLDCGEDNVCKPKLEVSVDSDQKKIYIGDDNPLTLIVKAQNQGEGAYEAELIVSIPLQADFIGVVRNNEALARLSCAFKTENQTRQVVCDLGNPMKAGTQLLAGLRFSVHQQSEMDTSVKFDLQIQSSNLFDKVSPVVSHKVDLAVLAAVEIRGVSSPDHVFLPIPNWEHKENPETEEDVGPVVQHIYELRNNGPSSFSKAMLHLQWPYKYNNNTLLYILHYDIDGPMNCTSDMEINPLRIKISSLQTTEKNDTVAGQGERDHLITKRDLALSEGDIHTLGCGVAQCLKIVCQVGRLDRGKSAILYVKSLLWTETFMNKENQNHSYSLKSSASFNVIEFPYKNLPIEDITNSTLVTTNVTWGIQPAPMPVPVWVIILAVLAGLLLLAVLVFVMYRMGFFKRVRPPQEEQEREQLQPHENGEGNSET
Chain of UniProt P06756 (P05556 21-798, chain 2 of 2, further chain): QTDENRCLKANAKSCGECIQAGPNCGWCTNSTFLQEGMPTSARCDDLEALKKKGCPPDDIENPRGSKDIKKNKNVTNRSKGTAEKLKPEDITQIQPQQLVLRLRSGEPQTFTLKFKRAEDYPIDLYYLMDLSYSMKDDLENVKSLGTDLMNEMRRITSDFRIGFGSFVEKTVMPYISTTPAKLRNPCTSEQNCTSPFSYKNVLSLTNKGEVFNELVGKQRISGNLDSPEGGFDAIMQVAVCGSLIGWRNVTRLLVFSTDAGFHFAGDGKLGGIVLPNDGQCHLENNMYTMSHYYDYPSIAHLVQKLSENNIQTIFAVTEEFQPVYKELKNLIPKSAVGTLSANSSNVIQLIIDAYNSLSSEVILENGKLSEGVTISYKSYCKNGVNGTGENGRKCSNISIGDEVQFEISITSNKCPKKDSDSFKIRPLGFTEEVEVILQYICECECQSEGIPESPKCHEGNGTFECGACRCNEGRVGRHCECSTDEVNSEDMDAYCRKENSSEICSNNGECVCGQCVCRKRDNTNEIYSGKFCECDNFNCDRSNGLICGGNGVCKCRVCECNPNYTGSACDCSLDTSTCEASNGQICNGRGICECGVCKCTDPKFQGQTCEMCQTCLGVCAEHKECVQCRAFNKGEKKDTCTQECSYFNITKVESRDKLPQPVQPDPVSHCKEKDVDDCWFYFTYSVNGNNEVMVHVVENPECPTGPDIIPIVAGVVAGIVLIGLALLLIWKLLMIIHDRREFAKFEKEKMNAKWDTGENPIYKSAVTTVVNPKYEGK

α1 integrin (human) = α1 integrin (human) (UniProt P56199)
Chain of UniProt P56199 (P56199 29-1179): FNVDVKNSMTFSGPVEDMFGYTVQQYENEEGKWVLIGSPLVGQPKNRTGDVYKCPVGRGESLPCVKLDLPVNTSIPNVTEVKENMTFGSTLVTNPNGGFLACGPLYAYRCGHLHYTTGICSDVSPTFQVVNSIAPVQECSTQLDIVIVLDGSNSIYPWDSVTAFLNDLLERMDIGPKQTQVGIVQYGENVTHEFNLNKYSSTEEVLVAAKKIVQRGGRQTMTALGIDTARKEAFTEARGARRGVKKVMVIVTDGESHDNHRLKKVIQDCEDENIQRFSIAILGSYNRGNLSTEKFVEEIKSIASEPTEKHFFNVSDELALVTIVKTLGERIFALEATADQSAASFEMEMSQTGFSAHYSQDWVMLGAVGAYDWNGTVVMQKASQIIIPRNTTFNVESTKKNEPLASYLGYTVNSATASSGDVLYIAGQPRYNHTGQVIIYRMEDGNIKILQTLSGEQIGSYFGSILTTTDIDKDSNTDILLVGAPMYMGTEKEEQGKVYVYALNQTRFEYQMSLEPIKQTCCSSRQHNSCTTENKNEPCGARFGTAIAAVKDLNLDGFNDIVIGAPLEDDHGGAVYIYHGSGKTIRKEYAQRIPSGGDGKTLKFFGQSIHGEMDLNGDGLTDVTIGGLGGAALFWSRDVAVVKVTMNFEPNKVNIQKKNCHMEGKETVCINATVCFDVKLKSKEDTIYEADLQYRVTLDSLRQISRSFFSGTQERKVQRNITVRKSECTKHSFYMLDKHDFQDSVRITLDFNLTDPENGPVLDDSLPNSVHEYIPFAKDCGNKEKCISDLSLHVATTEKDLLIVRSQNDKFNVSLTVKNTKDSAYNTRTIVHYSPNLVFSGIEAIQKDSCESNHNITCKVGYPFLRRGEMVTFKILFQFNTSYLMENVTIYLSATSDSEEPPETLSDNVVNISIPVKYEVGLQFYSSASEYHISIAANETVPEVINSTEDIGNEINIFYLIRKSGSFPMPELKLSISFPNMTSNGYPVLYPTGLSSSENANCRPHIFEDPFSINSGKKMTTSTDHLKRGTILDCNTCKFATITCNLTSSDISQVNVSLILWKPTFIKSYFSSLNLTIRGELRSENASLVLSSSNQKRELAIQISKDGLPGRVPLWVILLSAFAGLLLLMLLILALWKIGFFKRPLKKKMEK

Chain of UniProt P05556 (P05556 21-798): as the sequence (P05556 21-798, chain 2 of 2, further chain) above
Chain of UniProt P08648 (P08648 42-1049): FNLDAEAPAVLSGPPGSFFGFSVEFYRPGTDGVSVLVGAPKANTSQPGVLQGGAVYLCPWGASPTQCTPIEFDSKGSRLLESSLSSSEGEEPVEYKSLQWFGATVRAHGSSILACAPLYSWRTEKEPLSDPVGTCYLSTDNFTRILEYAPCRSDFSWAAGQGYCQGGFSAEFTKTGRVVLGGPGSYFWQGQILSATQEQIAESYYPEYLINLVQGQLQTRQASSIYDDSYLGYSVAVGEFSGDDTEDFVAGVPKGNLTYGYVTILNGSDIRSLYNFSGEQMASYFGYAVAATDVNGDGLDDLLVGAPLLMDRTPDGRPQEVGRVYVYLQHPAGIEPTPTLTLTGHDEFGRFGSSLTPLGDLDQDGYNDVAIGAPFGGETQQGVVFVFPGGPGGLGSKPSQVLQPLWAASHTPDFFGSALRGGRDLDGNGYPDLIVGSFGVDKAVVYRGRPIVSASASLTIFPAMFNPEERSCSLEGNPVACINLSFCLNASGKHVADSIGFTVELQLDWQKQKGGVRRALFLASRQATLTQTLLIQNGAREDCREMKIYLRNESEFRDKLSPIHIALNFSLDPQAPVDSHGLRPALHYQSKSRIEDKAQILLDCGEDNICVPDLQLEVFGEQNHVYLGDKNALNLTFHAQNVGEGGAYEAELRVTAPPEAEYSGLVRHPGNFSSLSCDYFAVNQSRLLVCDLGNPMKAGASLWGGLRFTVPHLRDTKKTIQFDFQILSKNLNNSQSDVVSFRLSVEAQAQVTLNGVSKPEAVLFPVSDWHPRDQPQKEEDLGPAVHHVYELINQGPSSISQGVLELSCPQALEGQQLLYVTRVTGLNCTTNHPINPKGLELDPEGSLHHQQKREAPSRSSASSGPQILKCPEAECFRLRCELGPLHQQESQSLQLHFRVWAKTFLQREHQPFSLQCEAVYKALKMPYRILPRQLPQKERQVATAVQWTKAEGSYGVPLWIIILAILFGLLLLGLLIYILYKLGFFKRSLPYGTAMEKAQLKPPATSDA

Molecule: Gi9 (antibody)
Maximal inhibition of toxicity (%) (α2 integrin (human)): 100%

Molecule: Laminin (ligand)
Maximal inhibition of toxicity (%) (α2β1 integrin (human)): 20%

Molecule: P1D6 (antibody)
Maximal inhibition of toxicity (%) (α5 integrin (human)): 5%

Molecule: TS2/16 (activating) (antibody)
Maximal inhibition of toxicity (%) (β1 integrin (human)): 0%

Molecule: Y9A2 (antibody)
Maximal inhibition of toxicity (%) (α9 integrin (human)): 0%

Molecule: AIIB2 (antibody)
Maximal inhibition of toxicity (%) (β1 integrin (human)): 100%

Molecule: GoH3 (antibody)
Maximal inhibition of toxicity (%) (α6 integrin (human)): 40%

Molecule: echistatin (from UniProt P17347 131-179) (peptide)
LTP in the presence of Aβ plus echistatin, dentate gyrus in vitro (% baseline) [1]: 143%

LTP in the presence of Aβ plus superfibronectin, dentate gyrus in vitro (% baseline) [1]: 147%
Molecule: Superfibronectin (ligand)
Maximal inhibition of toxicity (%) (αvβ1 integrin (human)): 100%

Molecule: TS2/7 (antibody)
Maximal inhibition of toxicity (%) (α1 integrin (human)): 5%

Molecule: SAM1 (antibody)
Maximal inhibition of toxicity (%) (α5 integrin (human)): 5%

LTP in the presence of Aβ plus antibody, CA1 in vivo (% baseline) [1]: 135%
LTP in the presence of Aβ plus antibody, dentate gyrus in vitro (% baseline) [1]: 153%
Molecule: 17E6 (antibody)

B1: MAB1998 (antibody, from another filing, V domains shown)
VH: QVQLKESGPGLVAPSQSLSITCTVSGFSLTNYGIHWVRQPPGKGLEWLGVIWARGFTNYNSALMSRLIITKDNSQSQVFLKMNSLQPDDSATYFCARANDGVYYAMDYWGQGTSVTVSS
VL: QFVLTQSPAFLSASPGEKVTMTCSANSSVNYIHWYQQKSGTSPKKWIYDTSKLASGVPVRFSGSGSGTSYSLTISSMETEDAATYYCQQWTTNPLTFGAGTRVELK
Maximal inhibition of toxicity (%) (α2 integrin (human)): 25%
